The record followed here is the supplement of paper PMC7125110.

± gives the standard error. Fewer inactive variants are shown than the library holds.

B1: glmS ribozyme (parent)
chain: AUAAAAGCGCCAGAACUACAGAAAUGUAGUUGACGAGGAGGAGGUUUAUCGAAUUUUCGGCGGAUGCCUCCAAA

What all share (details): with glucosamine-6-phosphate
Series [1] covers variants of B1. As to the kind of experiment: self-cleavage kobs at 640 uM GlcN6P; higher = faster cleavage; RNA array. The method in brief: (§1)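 E. coli RNA polymerase transcribed barcoded ribozyme variants in situ on sequenced MiSeq chips, which were tracked via a hybridised Cy3 probe at 37 °C. Tiles were imaged over ~14 h after glucosamine-6-phosphate (40 μM to 10 mM) in HEPES/KCl/Mg(OAc)2 buffer was flowed in. Normalised per-tile medians were fit to one- or two-exponential decays for kobs, and kcat and KM came from weighted Michaelis–Menten fits.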

Series [2] covers variants of B1. As to the kind of experiment: self-cleavage kobs at 2500 uM GlcN6P; higher = faster cleavage; RNA array. The method in brief:
as §1

The variants in series [3] derive from B1. As to the kind of experiment: self-cleavage kobs at 10000 uM GlcN6P; higher = faster cleavage; RNA array. The method in brief:
as §1

With A52G C58A G63C C68G, in the series with glucosamine-6-phosphate [1], the “self-cleavage kobs at 640 uM GlcN6P” value worked out at 0.00011 ± 4.4e-05 s⁻¹. The “self-cleavage kobs at 2500 uM GlcN6P” value with glucosamine-6-phosphate [2] turned out to be 0.000102 ± 2.9e-05 s⁻¹.

In the case of A48U C58U A64C, the “self-cleavage kobs at 640 uM GlcN6P” value with glucosamine-6-phosphate [1] is < 1e-05 s⁻¹. Moreover, the “self-cleavage kobs at 2500 uM GlcN6P” value with glucosamine-6-phosphate [2] is < 1e-05 s⁻¹.

Consider U30G G41U C50A, for which, in the series with glucosamine-6-phosphate [1], the “self-cleavage kobs at 640 uM GlcN6P” value was < 1e-05 s⁻¹. In the series with glucosamine-6-phosphate [2], the “self-cleavage kobs at 2500 uM GlcN6P” value was < 1e-05 s⁻¹.

For the variant G35U G40C U49C G51A, the “self-cleavage kobs at 640 uM GlcN6P” value with glucosamine-6-phosphate [1] is < 1e-05 s⁻¹.

On to A6U C10G A53C G62U, for which the “self-cleavage kobs at 640 uM GlcN6P” value with glucosamine-6-phosphate [1] is < 1e-05 s⁻¹. Moreover, the “self-cleavage kobs at 2500 uM GlcN6P” value with glucosamine-6-phosphate [2] is < 1e-05 s⁻¹.

In the case of U45G A53G G62A, the “self-cleavage kobs at 640 uM GlcN6P” value with glucosamine-6-phosphate [1] is < 1e-05 s⁻¹. Moreover, in the series with glucosamine-6-phosphate [2], the “self-cleavage kobs at 2500 uM GlcN6P” value is < 1e-05 s⁻¹.

With C8G A33U U46A U69G, in the series with glucosamine-6-phosphate [1], the “self-cleavage kobs at 640 uM GlcN6P” value is < 1e-05 s⁻¹. Also, the “self-cleavage kobs at 2500 uM GlcN6P” value in the series with glucosamine-6-phosphate [2] is < 1e-05 s⁻¹.

Consider G7A A12C A42C U49C, for which, in the series with glucosamine-6-phosphate [1], the “self-cleavage kobs at 640 uM GlcN6P” value was < 1e-05 s⁻¹.

In the case of G32A U57A C70G, in the series with glucosamine-6-phosphate [1], the “self-cleavage kobs at 640 uM GlcN6P” value was 0.000649 ± 0.00023 s⁻¹.

With C50A C61G C68U, the “self-cleavage kobs at 640 uM GlcN6P” value in the series with glucosamine-6-phosphate [1] came out at 8.62e-05 ± 2.5e-05 s⁻¹.

For A15U C34G G63A, the “self-cleavage kobs at 640 uM GlcN6P” value with glucosamine-6-phosphate [1] is < 1e-05 s⁻¹.

As to G9A U30G A39U, in the series with glucosamine-6-phosphate [1], the “self-cleavage kobs at 640 uM GlcN6P” value is < 1e-05 s⁻¹.

As to A39U U56A U65G, in the series with glucosamine-6-phosphate [1], the “self-cleavage kobs at 640 uM GlcN6P” value stood at 0.000165 ± 4.5e-05 s⁻¹. The “self-cleavage kobs at 10000 uM GlcN6P” value with glucosamine-6-phosphate [3] came to 0.00113 ± 0.00025 s⁻¹.

Take G7A A42C A52G U55A: in the series with glucosamine-6-phosphate [1], the “self-cleavage kobs at 640 uM GlcN6P” value is < 1e-05 s⁻¹. For the same variant, the “self-cleavage kobs at 2500 uM GlcN6P” value with glucosamine-6-phosphate [2] was < 1e-05 s⁻¹.

In the case of C11A A14G G43A U45G, in the series with glucosamine-6-phosphate [1], the “self-cleavage kobs at 640 uM GlcN6P” value is 4.76e-05 ± 2e-05 s⁻¹.

Take C8G A33C U55G G62U C67A: the “self-cleavage kobs at 640 uM GlcN6P” value with glucosamine-6-phosphate [1] is < 1e-05 s⁻¹. In addition, the “self-cleavage kobs at 2500 uM GlcN6P” value in the series with glucosamine-6-phosphate [2] was < 1e-05 s⁻¹.

As to C16U U46A A52U, in the series with glucosamine-6-phosphate [1], the “self-cleavage kobs at 640 uM GlcN6P” value was < 1e-05 s⁻¹.

On to G9C G63U G66A C68A C71A, for which, in the series with glucosamine-6-phosphate [1], the “self-cleavage kobs at 640 uM GlcN6P” value is < 1e-05 s⁻¹. Further, the “self-cleavage kobs at 2500 uM GlcN6P” value with glucosamine-6-phosphate [2] is < 1e-05 s⁻¹.

In the case of C10A C16A G51U A64C, the “self-cleavage kobs at 640 uM GlcN6P” value with glucosamine-6-phosphate [1] was < 1e-05 s⁻¹.

Regarding G29A U45G, the “self-cleavage kobs at 640 uM GlcN6P” value in the series with glucosamine-6-phosphate [1] worked out at 0.000156 ± 4.7e-05 s⁻¹. In the series with glucosamine-6-phosphate [2], the “self-cleavage kobs at 2500 uM GlcN6P” value is 0.000503 ± 0.00012 s⁻¹.

Turning to G44A C61A C71U, in the series with glucosamine-6-phosphate [1], the “self-cleavage kobs at 640 uM GlcN6P” value is < 1e-05 s⁻¹. The “self-cleavage kobs at 2500 uM GlcN6P” value with glucosamine-6-phosphate [2] was < 1e-05 s⁻¹.

C34A A42C C70A: in the series with glucosamine-6-phosphate [1], the “self-cleavage kobs at 640 uM GlcN6P” value was < 1e-05 s⁻¹.

A12G U46A: in the series with glucosamine-6-phosphate [1], the “self-cleavage kobs at 640 uM GlcN6P” value was found to be 6e-05 ± 1.9e-05 s⁻¹. Besides, in the series with glucosamine-6-phosphate [2], the “self-cleavage kobs at 2500 uM GlcN6P” value worked out at 4.25e-05 ± 1.5e-05 s⁻¹. Moreover, the “self-cleavage kobs at 10000 uM GlcN6P” value in the series with glucosamine-6-phosphate [3] was found to be 0.000187 ± 4.1e-05 s⁻¹.

Consider A15G A33G A48G G60U, for which the “self-cleavage kobs at 640 uM GlcN6P” value with glucosamine-6-phosphate [1] was < 1e-05 s⁻¹.

With G32C G51C A64G C70U, in the series with glucosamine-6-phosphate [1], the “self-cleavage kobs at 640 uM GlcN6P” value was < 1e-05 s⁻¹.

With C11G U47G C50A C70G, in the series with glucosamine-6-phosphate [1], the “self-cleavage kobs at 640 uM GlcN6P” value was determined as 0.000245 ± 6.2e-05 s⁻¹. In the series with glucosamine-6-phosphate [2], the “self-cleavage kobs at 2500 uM GlcN6P” value is 0.000139 ± 4e-05 s⁻¹. Moreover, the “self-cleavage kobs at 10000 uM GlcN6P” value in the series with glucosamine-6-phosphate [3] was 7.52e-05 ± 1.9e-05 s⁻¹.

With A39U A53C U55C, the “self-cleavage kobs at 640 uM GlcN6P” value with glucosamine-6-phosphate [1] is 0.000547 ± 9.5e-05 s⁻¹. The “self-cleavage kobs at 2500 uM GlcN6P” value with glucosamine-6-phosphate [2] amounted to 0.00232 ± 0.00029 s⁻¹.

On to G13U A39G C67A, for which, in the series with glucosamine-6-phosphate [1], the “self-cleavage kobs at 640 uM GlcN6P” value worked out at 9.82e-05 ± 3.9e-05 s⁻¹.

With U46G A53C C67U, the “self-cleavage kobs at 640 uM GlcN6P” value in the series with glucosamine-6-phosphate [1] is 7.34e-05 ± 2.7e-05 s⁻¹. Besides, the “self-cleavage kobs at 2500 uM GlcN6P” value with glucosamine-6-phosphate [2] stood at 0.000252 ± 8.5e-05 s⁻¹.

For the variant C10U G29A C61A G62A C70U, the “self-cleavage kobs at 640 uM GlcN6P” value with glucosamine-6-phosphate [1] is 7.67e-05 ± 3.8e-05 s⁻¹.

Take C16U A39U G66U: in the series with glucosamine-6-phosphate [1], the “self-cleavage kobs at 640 uM GlcN6P” value came to 0.000779 ± 0.00014 s⁻¹. For the same variant, the “self-cleavage kobs at 2500 uM GlcN6P” value with glucosamine-6-phosphate [2] was found to be 0.00146 ± 0.00036 s⁻¹.

A12G G66C C68A: the “self-cleavage kobs at 640 uM GlcN6P” value with glucosamine-6-phosphate [1] amounted to 6.5e-05 ± 2.5e-05 s⁻¹.

For A33G G40U C58A C67A, the “self-cleavage kobs at 640 uM GlcN6P” value with glucosamine-6-phosphate [1] was < 1e-05 s⁻¹. The “self-cleavage kobs at 2500 uM GlcN6P” value with glucosamine-6-phosphate [2] is < 1e-05 s⁻¹.
